# Target: T1, human HER2 protein present in serum samples (human, UniProt P04626 23-652)
# T1 construct: extracellular domain; Endogenous analyte in human sera; also called sHER2; serum HER2
# Test: sandwich ELISA, 1B7 capture/1G5-biotin detection
# Experimental: Standards, controls and samples were pipetted into the wells, and any HER2 present was bound by the immobilized antibody. […] Following a wash to remove unbound conjugate, a substrate solution was added to the wells, and color developed in proportion to the amount of HER2 bound. After color development was stopped, the absorbance was measured using a microplate spectrophotometer.
# Sample Buffer/Antibody Diluent (10% Casein in 1×PBS) was prepared (˜40 mL/plate). After incubation, plates were washed on a plate washer as described herein. 245 μL of Sample Buffer then was pipetted into a labeled snap-cap tube for each patient sample to be tested, as well as for each standard and control. A 1:50 dilution of each patient sample as well as each standard and control was generated (e.g., 5 μL of each sample in 95 μL of Sample Buffer). 100 μL of each sample (patient, standard, control, and blank (i.e., 100 μL of Sample Buffer)) was pipetted into their respective wells as indicated on the plate map. The wells were covered with an adhesive plate cover, placed in a microplate shaker (Corning LSE Digital Microplate Shaker) at 500 rpms for 1 min, and then incubated at room temperature for 1 hour.
# After incubation, plates were washed on a plate washer as described herein. […] 100 μL was pipetted into each well and the plate was covered with an adhesive plate cover. […]
binder,measurement,value
"1B7 anti-HER2 rabbit monoclonal antibody (antibody, V domains shown, Recombinant rabbit IgG (gamma 1 heavy, kappa 1 light) expressed in 293F cells; Used as the coated capture antibody; also called Capture Antibody (1B7; Yurogen)) VH: QSVEESGGRLVTPGTPLTLTCTVSGIDLSDYAMGWVRQAPGKGLEYIGIISSSGNTHYARWARGRFTISKTSSTTVDLKMTSLTTEDTATYFCARNYPGYANYALWGQGTLVTVSS VL: RIVMTQTPASVSAAVGGTVTIKCQASESISNWLSWYQQKPGQPPKLLIYRASTLASGVPSRFSGSGSGTEYTLTISDLECADAATYYCQQDYIYNDIDNAFGGGTEVVVKG",binding result,binds

# From US20240210403A1 (MARTELL DIAGNOSTIC LABORATORIES, published 2024)
